In IntAct's records for PubMed 29039417:

B1: BBSome complex member BBS1 (Homo sapiens), Q8NFJ9 (parent)
chain: MAAASSSDSDACGAESNEANSKWLDAHYDPMANIHTFSACLALADLHGDGEYKLVVGDLGPGGQQPRLKVLKGPLVMTESPLPALPAAAATFLMEQHEPRTPALALASGPCVYVYKNLRPYFKFSLPQLPPNPLEQDLWNQAKEDRIDPLTLKEMLESIRETAEEPLSIQSLRFLQLELSEMEAFVNQHKSNSIKRQTVITTMTTLKKNLADEDAVSCLVLGTENKELLVLDPEAFTILAKMSLPSVPVFLEVSGQFDVEFRLAAACRNGNIYILRRDSKHPKYCIELSAQPVGLIRVHKVLVVGSTQDSLHGFTHKGKKLWTVQMPAAILTMNLLEQHSRGLQAVMAGLANGEVRIYRDKALLNVIHTPDAVTSLCFGRYGREDNTLIMTTRGGGLIIKILKRTAVFVEGGSEVGPPPAQAMKLNVPRKTRLYVDQTLREREAGTAMHRAFQTDLYLLRLRAARAYLQALESSLSPLSTTAREPLKLHAVVQGLGPTFKLTLHLQNTSTTRPVLGLLVCFLYNEALYSLPRAFFKVPLLVPGLNYPLETFVESLSNKGISDIIKVLVLREGQSAPLLSAHVNMPGSEGLAAA
partner: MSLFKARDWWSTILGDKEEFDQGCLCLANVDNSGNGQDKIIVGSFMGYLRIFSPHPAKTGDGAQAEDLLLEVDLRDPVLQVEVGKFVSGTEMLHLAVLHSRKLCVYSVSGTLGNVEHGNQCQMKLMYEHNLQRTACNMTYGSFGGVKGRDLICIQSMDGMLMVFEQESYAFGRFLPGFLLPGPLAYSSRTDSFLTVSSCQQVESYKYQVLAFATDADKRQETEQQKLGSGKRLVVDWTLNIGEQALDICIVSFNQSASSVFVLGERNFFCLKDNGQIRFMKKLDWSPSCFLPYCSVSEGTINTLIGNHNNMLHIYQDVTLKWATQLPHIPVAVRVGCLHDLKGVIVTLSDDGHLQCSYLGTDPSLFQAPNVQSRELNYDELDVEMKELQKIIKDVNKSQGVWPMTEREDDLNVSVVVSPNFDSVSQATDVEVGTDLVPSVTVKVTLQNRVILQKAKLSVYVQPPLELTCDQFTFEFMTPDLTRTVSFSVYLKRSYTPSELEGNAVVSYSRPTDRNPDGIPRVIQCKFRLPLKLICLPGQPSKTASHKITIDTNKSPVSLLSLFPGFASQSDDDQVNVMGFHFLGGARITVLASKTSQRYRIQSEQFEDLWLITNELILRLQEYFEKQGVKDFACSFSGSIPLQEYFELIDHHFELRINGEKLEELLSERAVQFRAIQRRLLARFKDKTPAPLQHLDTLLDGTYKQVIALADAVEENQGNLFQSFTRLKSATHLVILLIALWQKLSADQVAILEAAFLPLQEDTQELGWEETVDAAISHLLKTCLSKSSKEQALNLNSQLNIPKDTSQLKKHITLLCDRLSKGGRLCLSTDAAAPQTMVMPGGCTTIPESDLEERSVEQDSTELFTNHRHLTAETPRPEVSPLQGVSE

Variants of: B1
Settings: with pthb1_human BBS9, Q3SYG4

effect of a mutation on the interaction	Variant
with no effect	MAAASSSDSDACGAESNEANSKWLDAHYDPMANIHTFSACLALADLHGDGEYKLVVGDLGPGGQQPRLKVLKGPLVMTESPLPALPAAAATFLMEQHEPRTPALALASGPCVYVYKNLRPYFKFSLPQLPPNPLEQDLWNQAKEDRIDPLTLKEMLESIRETAEEPLSIQSLRFLQLELSEMEAFVNQHKSNSIKRQTVITTMTTLKKNLADEDAVSCLVLGTENKELLVLDPEAFTILAKMSLPSVPVFLEVSGQFDVEFRLAAACRNGNIYILRRDSKHPKYCIELSAQPVGLIRVHKVLVVGSTQDSLHGFTHKGKKLWTVQMPAAILTMNLLEQHSRGLQAVMAGLANGEVRIYRDKALLNVIHTPDAVTSLCFGRYGREDNTLIMTTRGGGLIIKILKRTAVFVEGGSEVGPPPAQAMKLNVPRKTRLYVDQTLREREAGTAMHRAFQTDLYLLRLRAARAYLQALESSLSPLSTTAREPLKLHAVVQGLGPTFKLTLHLQNTSTTRPVLGLLVCFLYNEALYSLPRAFFKVPLLVPGLNYPLETFVESLSNKGISDIIKVLVLREGASAPLLSAHVNMPGSEGLAAA [Q573A]
with no effect	MAAASSSDSDACGAESNEANSKWLDAHYDPMANIHTFSACLALADLHGDGEYKLVVGDLGPGGQQPRLKVLKGPLVMTESPLPALPAAAATFLMEQHEPRTPALALASGPCVYVYKNLRPYFKFSLPQLPPNPLEQDLWNQAKEDRIDPLTLKEMLESIRETAEEPLSIQSLRFLQLELSEMEAFVNQHKSNSIKRQTVITTMTTLKKNLADEDAVSCLVLGTENKELLVLDPEAFTILAKMSLPSVPVFLEVSGQFDVEFRLAAACRNGNIYILRRDSKHPKYCIELSAQPVGLIRVHKVLVVGSTQDSLHGFTHKGKKLWTVQMPAAILTMNLLEQHSRGLQAVMAGLANGEVRIYRDKALLNVIHTPDAVTSLCFGRYGREDNTLIMTTRGGGLIIKILKRTAVFVEGGSEVGPPPAQAMKLNVPRKTRLYVDQTLREREAGTAMHRAFQTDLYLLRLRAARAYLQALESSLSPLSTTAREPLKLHAVVQGLGPTFKLTLHLQNTSTTRPVLGLLVCFLYNEALYSLPRAFFKVPLLVPGLNYPLETFVESLSNKGISDIIKVLVLRKGQSAPLLSAHVNMPGSEGLAAA [E571K]
with no effect	MAAASSSDSDACGAESNEANSKWLDAHYDPMANIHTFSACLALADLHGDGEYKLVVGDLGPGGQQPRLKVLKGPLVMTESPLPALPAAAATFLMEQHEPRTPALALASGPCVYVYKNLRPYFKFSLPQLPPNPLEQDLWNQAKEDRIDPLTLKEMLESIRETAEEPLSIQSLRFLQLELSEMEAFVNQHKSNSIKRQTVITTMTTLKKNLADEDAVSCLVLGTENKELLVLDPEAFTILAKMSLPSVPVFLEVSGQFDVEFRLAAACRNGNIYILRRDSKHPKYCIELSAQPVGLIRVHKVLVVGSTQDSLHGFTHKGKKLWTVQMPAAILTMNLLEQHSRGLQAVMAGLANGEVRIYRDKALLNVIHTPDAVTSLCFGRYGREDNTLIMTTRGGGLIIKILKRTAVFVEGGSEVGPPPAQAMKLNVPRKTRLYVDQTLREREAGTAMHRAFQTDLYLLRLRAARAYLQALESSLSPLSTTAREPLKLHAVVQGLGPTFKLTLHLQNTSTTRPVLGLLVCFLYNEALYSLPRAFFKVPLLVPGLNYPLETFVESLSNKGISDIIKVLVLEEGQSAPLLSAHVNMPGSEGLAAA [R570E]

Second part, the variant before the results:

Variant	effect of a mutation on the interaction
MAAASSSDSDACGAESNEANSKWLDAHYDPMANIHTFSACLALADLHGDGEYKLVVGDLGPGGQQPRLKVLKGPLVMTESPLPALPAAAATFLMEQHEPRTPALALASGPCVYVYKNLRPYFKFSLPQLPPNPLEQDLWNQAKEDRIDPLTLKEMLESIRETAEEPLSIQSLRFLQLELSEMEAFVNQHKSNSIKRQTVITTMTTLKKNLADEDAVSCLVLGTENKELLVLDPEAFTILAKMSLPSVPVFLEVSGQFDVEFRLAAACRNGNIYILRRDSKHPKYCIELSAQPVGLIRVHKVLVVGSTQDSLHGFTHKGKKLWTVQMPAAILTMNLLEQHSRGLQAVMAGLANGEVRIYRDKALLNVIHTPDAVTSLCFGRYGREDNTLIMTTRGGGLIIKILKRTAVFVEGGSEVGPPPAQAMKLNVPRKTRLYVDQTLREREAGTAMHRAFQTDLYLLRLRAARAYLQALESSLSPLSTTAREPLKLHAVVQGLGPTFKLTLHLQNTSTTRPVLGLLVCFLYNEALYSLPRAFFKVPLLVPGLNYPLETFVESLSNKGISDIIKVLVLRAGQSAPLLSAHVNMPGSEGLAAA [E571A]	with no effect
MAAASSSDSDACGAESNEANSKWLDAHYDPMANIHTFSACLALADLHGDGEYKLVVGDLGPGGQQPRLKVLKGPLVMTESPLPALPAAAATFLMEQHEPRTPALALASGPCVYVYKNLRPYFKFSLPQLPPNPLEQDLWNQAKEDRIDPLTLKEMLESIRETAEEPLSIQSLRFLQLELSEMEAFVNQHKSNSIKRQTVITTMTTLKKNLADEDAVSCLVLGTENKELLVLDPEAFTILAKMSLPSVPVFLEVSGQFDVEFRLAAACRNGNIYILRRDSKHPKYCIELSAQPVGLIRVHKVLVVGSTQDSLHGFTHKGKKLWTVQMPAAILTMNLLEQHSRGLQAVMAGLANGEVRIYRDKALLNVIHTPDAVTSLCFGRYGREDNTLIMTTRGGGLIIKILKRTAVFVEGGSEVGPPPAQAMKLNVPRKTRLYVDQTLREREAGTAMHRAFQTDLYLLRLRAARAYLQALESSLSPLSTTAREPLKLHAVVQGLGPTFKLTLHLQNTSTTRPVLGLLVCFLYNEALYSLPRAFFKVPLLVPGLNYPLETFVESLSNKGISDIIKVLVLKEGQSAPLLSAHVNMPGSEGLAAA [R570K]	with no effect
